# ± gives the standard deviation of the averaged measurements.
# B1: library; numbered along this chain (parent)
# chain: MNIQIGELAKRTACPVVTIRFYEQEGLLPPPGRSRGNFRLYGEEHVERLQFIRHCRSLDMPLSDVRTLLSYRKRPDQDCGEVNMLLDEHIRQVESRIGALLELKHHLVELREACSGARPAQSCGILQGLSDCVCDTRGTTAHPSD
# Columns and labels:
# [1] = variants of: B1; experiment: sfGFP reporter fluorescence (15 h) (µM FITC); higher = higher leak; conditions: library round: Round 1; ligand: none
# Experimental: (§1)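 Cell-free biosensing: 1 µL Echo-assembled CFE reactions with linear PbrR variant templates (5 nM) and pPbrR-sfGFP reporter, with 1 µM Pb, 30 µM Zn or no ligand; endpoint sfGFP fluorescence after 15 h at 30 °C calibrated as µM FITC. Round 1 ML-predicted PbrR mutants; 3 biological replicates.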
# [2] = variants of: B1; experiment: sfGFP reporter fluorescence (15 h) (µM FITC); higher = stronger transcriptional activation; conditions: library round: Round 1
# Experimental: as §1
Variant,sfGFP reporter fluorescence [1],sfGFP reporter fluorescence ([2]; ligand: 1 µM Pb),sfGFP reporter fluorescence ([2]; ligand: 30 µM Zn)
M60L D64K K104V L107C G128I,1.95 ± 0.25,2.02 ± 0.3,2.61 ± 0.17
P30V K104V,0.0683 ± 0.002,0.117 ± 0.0083,0.641 ± 0.092
N83R D135A,0.0635 ± 0.0017,0.0787 ± 0.005,0.0875 ± 0.0015
N83S I90L R111L,0.063 ± 0.0026,0.079 ± 0.0099,0.205 ± 0.021
P30A K104V,0.0666 ± 0.0032,0.115 ± 0.011,0.583 ± 0.05
P61N R111L,0.0644 ± 0.0014,0.0861 ± 0.0066,0.265 ± 0.025
D64T E88A C134E,0.204 ± 0.031,0.238 ± 0.062,1.65 ± 0.15
P61N D64K D135A,0.123 ± 0.0068,0.376 ± 0.011,1.33 ± 0.12
M60L D64K P143A,0.3527 ± 0.0018,0.945 ± 0.11,2.4 ± 0.12
M60L D64K D131C,0.344 ± 0.036,0.896 ± 0.29,2.2 ± 0.15
C55V K104V,0.0621 ± 0.00092,0.0644 ± 0.0017,0.107 ± 0.0044
M60L P61L,0.0689 ± 0.00037,0.081 ± 0.0019,0.156 ± 0.015
D64T L107C,2.07 ± 0.33,2.22 ± 0.12,2.63 ± 0.3
M60L P61N D64K K104T,0.137 ± 0.0056,0.446 ± 0.019,1.18 ± 0.11
E81Q,0.0605 ± 0.0017,0.0673 ± 0.0016,0.189 ± 0.022
V82I E112I D131C,0.0625 ± 0.0026,0.0635 ± 0.0028,0.0669 ± 0.0057
M60L D64K G128T D135A,0.874 ± 0.016,1.32 ± 0.071,2.33 ± 0.27
V16T K104V,0.0693 ± 0.0019,0.105 ± 0.0073,0.497 ± 0.034
P61D D64K E112H,0.156 ± 0.0048,0.345 ± 0.087,1.36 ± 0.14
D64K N83T D131S,0.0698 ± 0.0016,0.29 ± 0.022,1.03 ± 0.022
D64T K104T,0.207 ± 0.0096,0.472 ± 0.087,1.83 ± 0.16
P61L D64K,0.06157 ± 0.00037,0.0655 ± 0.0074,0.06389 ± 0.00056

Variant,sfGFP reporter fluorescence [1],sfGFP reporter fluorescence ([2]; ligand: 1 µM Pb),sfGFP reporter fluorescence ([2]; ligand: 30 µM Zn)
P61N L62I,0.0668 ± 0.0015,0.0856 ± 0.0013,0.379 ± 0.015
M60L D64K G128T D131C,0.754 ± 0.023,1.8 ± 0.19,2.25 ± 0.44
I3G K104V,0.0618 ± 0.0017,0.06841 ± 0.00056,0.0899 ± 0.0043
M60F P61N D64K,0.624 ± 0.057,1.61 ± 0.059,1.82 ± 0.16
P61N D131A P143W,0.0886 ± 0.0011,0.134 ± 0.023,0.59 ± 0.051
D64K I90C K104V,0.0914 ± 0.0024,0.341 ± 0.073,0.959 ± 0.086
M60L D64K R111L,0.205 ± 0.0039,0.676 ± 0.1,1.99 ± 0.49
N83S E112L,0.0612 ± 0.0034,0.0759 ± 0.0016,0.152 ± 0.006
D64K E112F,0.06988 ± 0.00056,0.145 ± 0.0047,0.802 ± 0.055
P61N I90L K104G,0.0641 ± 0.0019,0.0616 ± 0.0054,0.119 ± 0.012
M60L D135A,0.0914 ± 0.0019,0.258 ± 0.02,1.4 ± 0.16
D64A K104C,0.115 ± 0.002,0.342 ± 0.031,1.25 ± 0.076
N83I I97H,0.0618 ± 0.0012,0.0654 ± 0.0032,0.0625 ± 0.003
D64K N83T,0.0636 ± 0.0021,0.186 ± 0.009,0.695 ± 0.022
D64K N83F,0.0616 ± 0.0024,0.198 ± 0.035,0.143 ± 0.01
D64A I97M,0.0644 ± 0.002,0.0781 ± 0.0023,0.507 ± 0.02
N83T D131A P143I,0.0661 ± 0.0015,0.088 ± 0.0036,0.158 ± 0.014
N83T D131A P143L,0.0646 ± 0.0011,0.0895 ± 0.002,0.161 ± 0.012
D64K D131C,0.0864 ± 0.0047,0.282 ± 0.026,0.929 ± 0.032
D64K D131L,0.176 ± 0.017,0.513 ± 0.098,1.89 ± 0.093
D64K D131A,0.131 ± 0.0097,0.37 ± 0.032,1.76 ± 0.11
P61N V108M,0.07 ± 0.0013,0.122 ± 0.0096,0.698 ± 0.094

Variant,sfGFP reporter fluorescence [1],sfGFP reporter fluorescence ([2]; ligand: 1 µM Pb),sfGFP reporter fluorescence ([2]; ligand: 30 µM Zn)
N83S D131A D135A,0.0661 ± 0.0022,0.082 ± 0.01,0.275 ± 0.028
P61N C134M,0.102 ± 0.0054,0.233 ± 0.0043,1.53 ± 0.14
P61N C134V,0.095 ± 0.0057,0.189 ± 0.051,1.26 ± 0.21
D64K C79L,0.0594 ± 0.00097,0.05925 ± 0.00021,0.0572 ± 0.00064
M60L P61N D64K K104V L107E G128I,0.0622 ± 0.0024,0.0589 ± 0.0018,0.0596 ± 0.0016
D64I D135T,0.164 ± 0.02,0.514 ± 0.04,1.63 ± 0.29
D64I R111L,0.0903 ± 0.0015,0.254 ± 0.032,1.39 ± 0.12
N83I K104V,0.0628 ± 0.0011,0.356 ± 0.026,0.0679 ± 0.0048
P61N D64T E112I,0.0771 ± 0.0039,0.153 ± 0.018,0.942 ± 0.03
D64T R111A,0.173 ± 0.0098,0.246 ± 0.078,2.17 ± 0.2
D64T R111F,0.09114 ± 0.00056,0.181 ± 0.022,1.71 ± 0.025
M60L D64K E81A R111A,0.488 ± 0.013,1.37 ± 0.17,2.16 ± 0.59
D64T Q127G,0.0611 ± 0.004,0.0887 ± 0.0049,0.594 ± 0.062
P61D D64K D135A,0.15 ± 0.0062,0.321 ± 0.036,1.12 ± 0.11
D64K D135Y,0.149 ± 0.014,0.386 ± 0.028,1.09 ± 0.15
D64A C134M,0.135 ± 0.0022,0.233 ± 0.0049,1.77 ± 0.21
P61L L62I,0.063 ± 0.00064,0.063 ± 0.0019,0.0771 ± 0.0011
M60L D64K K104V D131C,0.504 ± 0.028,1.29 ± 0.22,1.91 ± 0.2
P61N P143L,0.0754 ± 0.0012,0.151 ± 0.0086,0.804 ± 0.13
N83M D131A,0.0614 ± 0.0015,0.0845 ± 0.004,0.065 ± 0.0015
R33C K104V,0.06255 ± 0.00056,0.0618 ± 0.0011,0.0646 ± 0.0015
G32S C55M,0.0668 ± 0.0018,0.0712 ± 0.0065,0.101 ± 0.0013

Variant,sfGFP reporter fluorescence [1],sfGFP reporter fluorescence ([2]; ligand: 1 µM Pb),sfGFP reporter fluorescence ([2]; ligand: 30 µM Zn)
P61L K104V,0.0638 ± 0.00097,0.0617 ± 0.005,0.0765 ± 0.0044
P61N D64K V108H,0.139 ± 0.0027,0.462 ± 0.044,1.48 ± 0.026
D64G N83S D135A,0.0656 ± 0.00097,0.0915 ± 0.002,0.292 ± 0.0096
N83S R111D,0.0636 ± 0.0039,0.0665 ± 0.0026,0.0759 ± 0.00097
N83S R111C,0.06169 ± 0.00056,0.0672 ± 0.002,0.0665 ± 0.0011
P61D D64K,0.168 ± 0.0064,0.454 ± 0.038,1.44 ± 0.17
P61A L107C G128M,1.26 ± 0.063,1.47 ± 0.35,2.25 ± 0.16
D64K C114I,0.05986 ± 0.00056,0.0594 ± 0.0011,0.0599 ± 0.0022
D64K C114F,0.0621 ± 0.0032,0.0613 ± 0.0011,0.0596 ± 0.0016
P61N K104V L107E,0.0663 ± 0.0026,0.0646 ± 0.0037,0.06805 ± 0.00056
P15A P61N,0.0831 ± 0.0029,0.12 ± 0.017,0.573 ± 0.031
P15A P61L,0.0735 ± 0.0017,0.0722 ± 0.0038,0.0794 ± 0.002
C55L M60L P61N D64K,0.071 ± 0.0012,0.0878 ± 0.0025,0.382 ± 0.0068
E43M G128I,0.077 ± 0.0028,0.206 ± 0.025,1.23 ± 0.086
D64T D135A,0.13 ± 0.0033,0.23 ± 0.0095,1.63 ± 0.1
D64T D135R,0.137 ± 0.008,0.29 ± 0.041,1.76 ± 0.28
V16C K104V,0.0623 ± 0.0024,0.0778 ± 0.0038,0.0911 ± 0.012
P61S G128I D131C,0.12 ± 0.0019,0.286 ± 0.053,1.25 ± 0.2
D64K I97S,0.0966 ± 0.0019,0.216 ± 0.016,1.09 ± 0.074
D64K I97A,0.2087 ± 0.002,0.581 ± 0.17,2.21 ± 0.066
P61N E94V,0.07452 ± 0.00056,0.145 ± 0.009,0.747 ± 0.049
P61N E94C,0.0858 ± 0.0022,0.186 ± 0.015,0.781 ± 0.13
